US20250277029A1, “CANNABINOID TYPE 1 RECEPTOR BINDING PROTEINS AND USES THEREOF” (AMGEN INC., priority 2022, published 2025)

T1: XCR1-SMALP-GFP
T1 sequence (P46094 whole entry, species assumed, looked up): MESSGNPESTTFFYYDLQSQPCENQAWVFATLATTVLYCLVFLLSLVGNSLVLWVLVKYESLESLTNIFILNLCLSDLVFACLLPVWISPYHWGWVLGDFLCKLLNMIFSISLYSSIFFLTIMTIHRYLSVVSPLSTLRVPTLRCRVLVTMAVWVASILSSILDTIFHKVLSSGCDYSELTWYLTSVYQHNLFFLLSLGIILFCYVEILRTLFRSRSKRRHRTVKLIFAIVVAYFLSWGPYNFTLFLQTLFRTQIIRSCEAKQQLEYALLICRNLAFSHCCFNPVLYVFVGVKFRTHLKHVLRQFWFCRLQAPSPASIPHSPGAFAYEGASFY

T2: XCR1-SMALP
T2 sequence (P46094 whole entry, species assumed, looked up): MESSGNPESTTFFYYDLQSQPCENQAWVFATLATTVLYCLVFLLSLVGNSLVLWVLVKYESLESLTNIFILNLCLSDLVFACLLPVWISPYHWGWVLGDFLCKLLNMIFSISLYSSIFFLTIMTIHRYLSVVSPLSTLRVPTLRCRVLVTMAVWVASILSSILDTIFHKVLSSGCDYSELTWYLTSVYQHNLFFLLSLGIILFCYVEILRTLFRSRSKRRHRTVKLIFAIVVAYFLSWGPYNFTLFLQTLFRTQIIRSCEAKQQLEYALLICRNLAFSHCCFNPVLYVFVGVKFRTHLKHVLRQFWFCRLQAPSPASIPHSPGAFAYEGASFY


How the values were obtained:
[1] = biological target: T1, XCR1-SMALP-GFP; test: flow cytometry, yeast-displayed Fab, 25 nM XCR1-SMALP-GFP, after background subtraction
[2] = biological target: T2, XCR1-SMALP; test: flow cytometry, yeast-displayed Fab, 50 nM XCR1 SMALP

| Binder | Relative binding fold change compared to LIBC528116 (Fab) [1] [fold] | relative binding fold change compared to LIBC523797-1(Fab) [2] [fold] |
| --- | --- | --- |
| LIBC680562-1 (yeast-displayed Fab) (Fab, V domains shown) VH: QVQLQESGPGLVKPSQTLSLTCTVSGGSIRRGGDYWAWIRQHPGKGLEWIGHIYQTGSTNYNPRFKGRATISVNTYKNQFSLKLSSVTAADTAVYYCARNYDTLTGYSYYYYGMDVWGQGTTVTVSS VL: DIQMTQSPSSLSASVGDRVTITCRASQSISSYLNWYQQKPGKAPKLLIYSARRLSSGVPSRFSGSGSGTDFTLTISSLQPEDFATYYCQQYAKSPITFGGGTKVEIKR | 0.64 | – |
| LIBC680574-1 (yeast-displayed Fab) (Fab, V domains shown) VH: QVQLQESGPGLVKPSQTLSLTCTVSGGSIRRGGDYWAWIRQHPGKGLEWIGHVYYTGSTKYNPSFKDRATISVNTYKNQFSLKLSSVTAADTAVYYCARNYDTLTGYSYYYYGMDVWGQGTTVTVSS VL: DIQMTQSPSSLSASVGDRVTITCRASQSISSYLNWYQQKPGKAPKLLIYGARRLGSGVPSRFSGSGSGTDFTLTISSLQPEDFATYYCQQYSSLPVTFGGGTKVEIKR | 0.56 | – |
| LIBC680812-1 (yeast-displayed Fab) (Fab, V domains shown) VH: QVQLQESGPGLVKPSQTLSLTCTVSGGSIRRGGDYWGWIRQHPGKGLEWIGHVYQTGSTKYNPSFKDRATISVNTYKNQFSLKLSSVTAADTAVYYCARNYDTLTGYSYYYYGMDVWGQGTTVTVSS VL: DIQMTQSPSSLSASVGDRVTITCRASQSISSYLNWYQQKPGKAPKLLIYSARRLSSGVPSRFSGSGSGTDFTLTISSLQPEDFATYYCQQYRSYPITFGGGTKVEIKR | 0.59 | – |
| LIBC680800-1 (yeast-displayed Fab) (Fab, V domains shown) VH: QVQLQESGPGLVKPSQTLSLTCTVSGGSIRRGGDYWAWIRQHPGKGLEWIGHIYQTGSTNYNPRFKGRATISVNTYKNQFSLKLSSVTAADTAVYYCARNYDTLTGYSYYYYGMDVWGQGTTVTVSS VL: DIQMTQSPSSLSASVGDRVTITCRASQSISSYLNWYQQKPGKAPKLLIYSARALSSGVPSRFSGSGSGTDFTLTISSLQPEDFATYYCQQYRKFPLTFGGGTKVEIKR | 0.47 | – |
| LIBC681594-1 (yeast-displayed Fab) (Fab, V domains shown) VH: QVQLQESGPGLVKPSQTLSLTCTVSGGSIRRGGDYWAWIRQHPGKGLEWIGHIYQTGSTNYNPRFKGRATISVNTYKNQFSLKLSSVTAADTAVYYCARNYDTLTGYSYYYYGMDVWGQGTTVTVSS VL: DIQMTQSPSSLSASVGDRVTITCRASQSISSYLNWYQQKPGKAPKLLIYKARKLSSGVPSRFSGSGSGTDFTLTISSLQPEDFATYYCQQFGSMPLTFGGGTKVEIKR | 1.04 | – |
| LIBC673952-1 (Fab on yeast) (Fab, V domains shown) VH: QVQLQESGPGLVKPSQTLSLTCTVSGGSIRRGGDYWSWIRQHPGKGLEWIGHVYYTGQTTYNPSFRGRVTISVNTYKNQFSLKLSSVTAADTAVYYCARDYDILTGYSYYYYGLDVWGQGTTVTVSS VL: DIVMTQSPLSLPVTPGEPASISCRSSQSLLHRSGYNYLDWYLQKPGQSPQLLIYQGSNRASGVPDRFSGSGSGTDFTLKISRVEAEDVGVYYCRQARALPRTFGQGTKVEIKR | – | 0.59 |
| LIBC674200-1 (Fab on yeast) (Fab, V domains shown) VH: QVQLQESGPGLVKPSQTLSLTCTVSGGSIRRGGDYWSWIRQHPGKGLEWIGHVYYTGQTAYNPNFRNRVRISVNTYKNQFSLKLSSVTAADTAVYYCARGYDVSGYSYYYYGMDVWGQGTTVTVSS VL: DIVMTQSPLSLPVTPGEPASISCRSSQSLLHRSGYNYLDWYLQKPGQSPQLLIYLGSNRASGVPGRFSGSGSGTDFTLKISRVEAEDVGVYYCMQSLQTPRTFGQGTKVEIKR | – | 0.79 |

Results, then the binder that gave them:

| Relative binding fold change compared to LIBC528116 (Fab) [1] [fold] | relative binding fold change compared to LIBC523797-1(Fab) [2] [fold] | Binder |
| --- | --- | --- |
| 0.72 | – | LIBC681593-1 (yeast-displayed Fab) (Fab, V domains shown) VH: QVQLQESGPGLVKPSQTLSLTCTVSGGSIRRGGDYWAWIRQHPGKGLEWIGHIYQTGSTNYNPRFKGRATISVNTYKNQFSLKLSSVTAADTAVYYCARNYDTLTGYSYYYYGMDVWGQGTTVTVSS VL: DIQMTQSPSSLSASVGDRVTITCRASQSISSYLNWYQQKPGKAPKLLIYNARRLGSGVPSRFSGSGSGTDFTLTISSLQPEDFATYYCQQYRSSPVTFGGGTKVEIKR |
| – | 0.74 | LIBC674090-1 (Fab on yeast) (Fab, V domains shown) VH: QVQLQESGPGLVKPSQTLSLTCTVSGGSIRRGGDYWSWIRQHPGKGLEWIGHIYYAGSTAYNPNFRGRVRISVNTYKNQFSLKLSSVTAADTAVYYCARGYDTSGYSYYYYGLDVWGQGTTVTVSS VL: DIVMTQSPLSLPVTPGEPASISCRSSQSLLHRSGYNYLDWYLQKPGQSPQLLIYQGSNRASGVPDRFSGSGSGTDFTLKISRVEAEDVGVYYCMQSLQTPRTFGQGTKVEIKR |
| – | 0.8 | LIBC674229-1 (Fab on yeast) (Fab, V domains shown) VH: QVQLQESGPGLVKPSQTLSLTCTVSGGSIRRGGDYWSWIRQHPGKGLEWIGHIYQTGQTKYNPSFKGRVRISVNTYKNQFSLKLSSVTAADTAVYYCARGYDVSGYSYYYYGMDVWGQGTTVTVSS VL: DIVMTQSPLSLPVTPGEPASISCRSSQSLLHRSGYNYLDWYLQKPGQSPQLLIYQGSNRASGVPDRFSGSGSGTDFTLKISRVEAEDVGVYYCMQSLQTPRTFGQGTKVEIKR |
